Laboratory results from the DeepSol protein solubility set.

test: soluble on expression in E. coli; label from the status in PepcDB or PDB records

| Sequence | soluble on expression in E. coli |
| --- | --- |
| MSFSLEMPQMLPAPRDCYAVPGKPGHSEPLTVVGWEHMDLKLFYPSALFSSWSIRTALYPLAVLRSQLQLQKQNTVYRSTFHAYSDISKREGFRGLYRGFWITVPQIGCSFIYSTIFEKCRAVLHEQGIQSVGGVAAVAGGLASFATQSIFVPTDIIAQYMMIYKNTDKLTAGHDKSVIDGVRNHVKNGSGLGTSVIKAIYKTDGILGFYRGFWASTAVYVPQMLTFWPSYYWMLGLFNKVPYRTLHPATNRSLLFDQAVAATLGGVISTVATNPMELFRVRLQVHRGSYSKTLETMLRDEKTAVFTKGLTPRIIANSMYSGLVVVGYEIVKRLCAKEEYKHRVKW | not soluble |
| MADSQTSSNRAGEFSIPPNTDFRAIFFANAAEQQHIKLFIGDSQEPAAYHKLTTRDGPREATLNSGNGKIRFEVSVNGKPSATDARLAPINGKKSDGSPFTVNFGIVVSEDGHDSDYNDGIVVLQWPIG | soluble |
| MSLRCPTCQYNGTRVVDSRPADDGNSIRRRRECEKCGFRFTTFEKVEESPLIVVKKDGAREEFAREKVRRGLIRACEKRPVSAEQIEEIVNEVERELRNIGDSEIASDLIGEKVMNKLANLDEVAYVRFASVYRQFKDISVFVEELKDLMEKNKEGHHHHHH | soluble |
| MTKVIAITGKGGTGKTAVAALLIRSLSKKGQFILAVDADADTNLPETLGCENVKTIGDAKEFLQAEITKPRPDNPDMNKESVLQSKVYEIIEEMPGYDLLVMGRPEGSGCYCYVNNLLRGIMDKLVKNYDLVVIDAEAGLEHFSRKIIRDIDDLIVVTDASRRGFRTAERIHELVNELESNIGSIHVIANKVTDANREKLVKLAEELKLNLIGMIPLDPKIEEMDIKGIPLFEIPDDSVAAVEIENIVKKLGF | not soluble |
| MGSDKIHHHHHHMSAYPPLNSLRIFEAAARLESFSAAAGELFVTHGAVSKQIKQLEDWLGVQLFERSGGRVRLTDAGWRYLVQVQDGLDLIANATSQLLQPNRQRRLTINSTPTFAAFWLLPRLAGFRSQLPELELHLVTSDRDLSRLDAPFDVAIRRGPGDWPGHIAKPFLKEWELPLCSPALLSRQPLAQAADLTQHTLLHADTRPTAWPRWLTLAGAPELKPACSLHFDKFSLALQAAVDGLGVVLGPLPMAHELIAAGKLVSPLPGPVVTVRDYCWVVPRMSAEDATVATFCRWLEGEAEKAGLSGVESG | not soluble |
| MGDFREVLFYHSETKHYPYRFARSLGYLDWENQPNPFRFWEGTERLDLPLLKDPSHPYEALYDYGLVNTEEFNVKSLSKFLELALGLSAWKAIPGSRWSVRMNPSSGNLHPTECYVIIPHLGGLQGVFHYNPFLHALEKRADIPYELSQKIKDFFGTEGFILILTSIPWRESWKYGERAYRYCLLDTGHAIGSVRFSANLKGWKVKYLNALSDKDLEILLGFDRVQWVEGEEEFPELALFVFPKEVQDVPRTIPESIINEFKKLNFYGRPNVLSKERVIWEIIYRAIKETEKPRTEEFRVIYGNPPILNLVPSYMSAEEVIRKRRSGMAYDGKTYILRELFIHALDKTLPRDNYSPFDVEIGLPFVNLFIFVNRVENLPKGLYCFVRNEELLKDLKEITSSEFLWEKVFEDFPLYLLKTGDFREVAGFVACAQDIASDSAFSLGMISLFEPVLREEPWFYRNLHWEAGLIGQVLYLEATAHNLNGTGIGCFFDDAMHEVLGISDKTFQDLYHFTFGKAVEDPRIQTIEPYYHLKRERR | not soluble |
| MRPESMTDGVPGSDSPAAAAAAASVTTSLHDLQVLVERGTLSGPEKQQADHLVTSLKRELVLRRVGDHLAERTFHELCVRLAVMERDWAAMERHIQQLMPLYELDRQAGIQSPHRDLLVGLNLMRLLAQNRLAEYHMELELLPTTEPQQNPYVLFPFQVEQALTEGSYQKILHIEAGAEWLPFIELLRETTIQEMVTSWAEAYAHVTLEELASMAALPVEQVPALLARVLDCTQYVVQNETVHFIASDHIREAPSQYLLAKEAVSRTMEYIRGLERIV | soluble |
| SDCLIVVDTRAAIRRVNRAALTMLGYDEEQLLGMPVGVIFAWERDKERLRTEGLRCFVESIGSSPAEFTFLSSDERRTPVLLSASPMLGRD | not soluble |
| MKKALMICAAGTMIFVSYSAENTAPEVSKAVEDRITKDYDQDGVYSSYEKALRRAQGSIYVTLPEKRGEWYSTLDKIKEEEKELMPDEEARMRRKR | not soluble |
| MQPNDITFFQRFQDDILAGRKTITIRDESESHFKTGDVLRVGRFEDDGYFCTIEVTATSTVTLDTLTEKHAEQENMTLTELKKVIADIYPGQTQFYVIEFKCL | soluble |
| MESNNNEKKKVARQSSSFRLRSPSLNALRLQRIFDLFDKNGDGFITVEELSQALTRLGLNADLSDLKSTVESYIQPGNTGLNFDDFSSLHKTLDDSFFGGACGGGENEDDPSSAAENESDLAEAFKVFDENGDGFISARELQTVLKKLGLPEGGEMERVEKMIVSVDRNQDGRVDFFEFKNMMRTVVIPSS | soluble |
| AEAAKPATAADSKAAFKNDDQKSAYALGASLGRYMENSLKEQEKLGIKLDKDQLIAGVQDAFADKSKLSDQEIEQTLQAFEARVKSSAQAKMEKDAADNEAKGKEYREKFAKEKGVKTSSTGLVYQVVEAGKGEAPKDSDTVVVNYKGTLIDGKEFDNSYTRGEPLSFRLDGVIPGWTEGLKNIKKGGKIKLVIPPELAYGKAGVPGIPPNSTLVFDVELLDVKPAPKADAKPEADAKAADSAKK | soluble |
| MLRHSRHNAVFILDTAGIIMGISEGAQRSYGYTHKDVHGKYFDMLFTEESRKQQKPELELAKVLQYGTAADYNEFVHKDGRHIWTEGESLLITDVWGDSFIIKNVHSLDKEKEEQRNLQQQNEKLLRINNDLDTFVYTASHDLKNPVSNIESLVSIMQYELKHGADAEAVEPVMSRITEALNRFKTTLNELTEISRIDAPVDTDEMYVSFDSILQEVMYDVQDLVDSTEASIQSDFSAATMVRFSKKNVRSILFNLLSNALKYRSPERKPEIYIETKPAGEYILLSVRDNGIGIEPAQHKKVFQFFKRLHTHVQGTGVGMGIVKKIMDNTGGKITLESIPGKGSAFTVHFKQ | not soluble |
| MVAVERVESLAKSGIISIPKEYIRPKEELESINDVFLEEKKEDGPQVPTIDLKNIESDDEKIRENCIEELKKASLDWGVMHLINHGIPADLMERVKKAGEEFFSLSVEEKEKYANDQATGKIQGYGSKLANNASGQLEWEDYFFHLAYPEEKRDLSIWPKTPSDYIEATSEYAKCLRLLATKVFKALSVGLGLEPDRLEKEVGGLEELLLQMKINYYPKCPQPELALGVEAHTDVSALTFILHNMVPGLQLFYEGKWVTAKCVPDSIVMHIGDTLEILSNGKYKSILHRGLVNKEKVRISWAVFCEPPKDKIVLKPLPEMVSVESPAKFPPRTFAQHIEHKLFGKEQEELVSEKND | soluble |
| VFRQTFLEFSQRTVSQARLDIGRKKLQELSSTFARAENEFGVPAGVIAAFWAMETDFGAVQGDFNTRNALVTLSHDCRRPELFRPQLLALIEMVQHGDLDPATNTGAWAGEIGQVQMLPKDIIAFGVDGDGNGHINVKDSAPDAILTAAKFIQHLGFKKGEPWMQEVSVPENLPWEKSGLGGSLTAGDWFALGVTPRDGNKNFASLPAALIMPQGRKGPTFITYPNFNIYLEWNQSFIYTTSAAYFANRLMGAPVY | not soluble |
| MGSDKIHHHHHHMAETFPLLAAQPIYDNKNRFYAVELLYRSALNLTAETVGDTAATSEVVFNLCAGITSQTEHYDATAFINVSSEFLVSQSFLPLEPDKVVIELVERIKPTRAVVNAVARWYEKGFRFALDDFEFDPAWEPLLQYASYIKVDVSTLTLAQARVFKQKLSGFKGKWLAERVEDEATKQAYEELGFELFQGYYFAKPAIVYGTRLEPSSLQLAKVLSLCFEEEPDLTELSRVISEDPQLSVCLLKIVNSPLYPTASPITRVKDVIMRLGIEKLRRWIALIGAVTASSPEASRMVLVRAQMCYELAKWKSSPGLDADQCYFVGLLSGVDIMLGVDKASFFEKLPLSEQTRKAVEDCDGPMGQCLRIALKLERLVRMKEGLDKVDSRLLTTYQSVSTKVQELFNTI | not soluble |
| MAKKIEKNIITGLDIGTSKIIALIGEVTSDGTIEIIGIGRHPSRGLKRGVVVDIETTVNSIQRAVQEAELMAGCEVRTVYAGIAGSHIRSLNSHGIVAIRDQEVSQADVERVIDAAKAVAIPADQ | not soluble |
